From PMC11452484 come the findings set out here.

Data set [1] concerns the target short pAgo (SPARSA Ago subunit);Sir2-APAZ N142A (Geobacter sulfurreducens;Geobacter …, UniProt Q74DF5;Q74DF6 1-473;1-587, |N142A). Kind of data set: cryo-EM structure.
Data set [2] addresses short pAgo (SPARSA Ago subunit);Sir2-APAZ (Geobacter sulfurreducens;Geobacter …, UniProt Q74DF5;Q74DF6 1-473;1-587, |). The experiment in a line: SEC. Background: Size exclusion chromatography separates by hydrodynamic size, large species first.

B1: gRNA-target ssDNA (DNA:RNA)
RNA: AUUCCUGUUAGAGCUGUUAAC
DNA: AAGTTAACAGCTCTAACAGGAATAA
modifications: 5'-phosphate on guide RNA
For B1, the binding result in data set [1] and in data set [2] was “binds” throughout.
